Test results from US20090118184A1 (UNIVERSITY OF ROCHESTER, published 2009).
Numbering of substitutions follows the chain as printed. Names and notes keep the numbering of the source.

Columns and labels:
Assay in all cases: cell-based or functional assay
[1] = molecular target: T1, factor VIIIa A1/A3C1C2 dimer, wild type (human, UniProt P00451 20-391; P00451 1709-2351)
T1 sequence 1: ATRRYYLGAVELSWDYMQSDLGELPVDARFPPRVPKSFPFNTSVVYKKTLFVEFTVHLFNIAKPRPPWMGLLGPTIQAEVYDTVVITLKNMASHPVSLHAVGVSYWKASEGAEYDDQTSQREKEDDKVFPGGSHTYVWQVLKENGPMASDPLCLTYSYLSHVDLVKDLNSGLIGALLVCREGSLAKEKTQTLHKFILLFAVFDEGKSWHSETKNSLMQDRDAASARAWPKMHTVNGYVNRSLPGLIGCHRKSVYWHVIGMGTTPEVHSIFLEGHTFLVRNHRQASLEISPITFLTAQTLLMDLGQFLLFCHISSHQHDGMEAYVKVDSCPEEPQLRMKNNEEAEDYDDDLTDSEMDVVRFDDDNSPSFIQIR
T1 sequence 2: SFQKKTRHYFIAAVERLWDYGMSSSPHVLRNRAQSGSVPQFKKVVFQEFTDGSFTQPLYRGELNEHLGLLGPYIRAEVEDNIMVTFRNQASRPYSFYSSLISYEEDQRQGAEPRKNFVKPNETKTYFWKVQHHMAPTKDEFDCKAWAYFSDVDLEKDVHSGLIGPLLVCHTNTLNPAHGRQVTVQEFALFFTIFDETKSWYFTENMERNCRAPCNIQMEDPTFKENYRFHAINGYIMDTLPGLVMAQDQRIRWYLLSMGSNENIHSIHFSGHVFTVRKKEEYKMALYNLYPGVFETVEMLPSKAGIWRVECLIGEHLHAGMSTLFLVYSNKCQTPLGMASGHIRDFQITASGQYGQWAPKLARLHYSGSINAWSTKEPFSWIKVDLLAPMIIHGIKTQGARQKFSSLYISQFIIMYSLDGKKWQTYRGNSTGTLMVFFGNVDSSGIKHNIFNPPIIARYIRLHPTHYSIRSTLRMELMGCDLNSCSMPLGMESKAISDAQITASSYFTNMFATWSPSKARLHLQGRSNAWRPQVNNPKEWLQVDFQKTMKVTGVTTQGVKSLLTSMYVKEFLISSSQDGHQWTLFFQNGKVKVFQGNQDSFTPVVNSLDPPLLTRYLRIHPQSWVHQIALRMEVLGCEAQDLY

[2] = molecular target: T1, factor VIIIa A1/A3C1C2 dimer, wild type; remark: listed apart in the source
[3] = molecular target: T2, factor VIIIa A1/A3C1C2 dimer, Glu1984Ala (human, UniProt P00451 20-391; P00451 1709-2351)
T2 sequence 1: T1 sequence 1
T2 sequence 2: T1 sequence 2 with E295A

[4] = molecular target: T3, factor VIIIa A1/A3C1C2 dimer, Glu1984Val (human, UniProt P00451 20-391; P00451 1709-2351)
T3 sequence 1: T1 sequence 1
T3 sequence 2: T1 sequence 2 with E295V

[5] = molecular target: T4, factor VIIIa A1/A3C1C2 dimer, Glu113Ala (human, UniProt P00451 20-391; P00451 1709-2351)
T4 chain 1: T1 sequence 1 with E113A
T4 chain 2: T1 sequence 2

[6] = molecular target: T1, factor VIIIa A1/A3C1C2 dimer, wild type; remark: listed apart in the source

B1: factor VIIIa A2 subunit, Glu665Val (other)
chain: SVAKKHPKTWVHYIAAEEEDWDYAPLVLAPDDRSYKSQYLNNGPQRIGRKYKKVRFMAYTDETFKTREAIQHESGILGPLLYGEVGDTLLIIFKNQASRPYNIYPHGITDVRPLYSRRLPKGVKHLKDFPILPGEIFKYKWTVTVEDGPTKSDPRCLTRYYSSFVNMERDLASGLIGPLLICYKESVDQRGNQIMSDKRNVILFSVFDENRSWYLTENIQRFLPNPAGVQLEDPEFQASNIMHSINGYVFDSLQLSVCLHEVAYWYILSIGAQTDFLSVFFSGYTFKHKMVYVDTLTLFPFSGETVFMSMENPGLWILGCHNSDFRNRGMTALLKVSSCDKNTGDYYEDSYEDISAYLLSKNNAIEPR
- Factor VIIIa Decay relative to the WT value, Factor IXa absent [1]: 0.19 relative to WT
- Factor VIIIa Decay relative to the WT value, Factor IXa present [1]: 0.34 relative to WT
- Factor VIIIa Decay, Factor IXa absent [1]: 0.016 min⁻¹
- Factor VIIIa Decay, Factor IXa present [1]: 0.0052 min⁻¹
- Decay rate relative to wild type, Factor VIIIa (1.5 nM, factor IXa absent) [2]: 0.28 relative to wild type
- Decay rate, Factor VIIIa (1.5 nM factor VIIIa, factor IXa absent) [2]: 0.0395 min⁻¹
- Decay rate relative to wild type, Factor VIIIa (1.5 nM, factor IXa absent) [3]: 0.26 relative to wild type
- Decay rate, Factor VIIIa (1.5 nM factor VIIIa, factor IXa absent) [3]: 0.036 min⁻¹
- Decay rate relative to wild type, Factor VIIIa (1.5 nM, factor IXa absent) [4]: 0.48 relative to wild type
- Decay rate, Factor VIIIa (1.5 nM factor VIIIa, factor IXa absent) [4]: 0.0671 min⁻¹
- Decay rate relative to wild type, Factor VIIIa (1.5 nM, factor IXa absent) [5]: 0.24 relative to wild type
- Decay rate, Factor VIIIa (1.5 nM factor VIIIa, factor IXa absent) [5]: 0.0333 min⁻¹

B2: factor VIIIa A2 subunit, S654A (other)
chain: B1 chain with S282A, V293E
- Factor VIIIa decay rate relative to wild type, FIXa (+) [6]: 1.28 relative to wild type
- Factor VIIIa decay rate, FIXa (+) [6]: 0.0145 min⁻¹

B3: factor VIIIa A2 subunit, D519A and E665A (other)
chain: B1 chain with D147A, V293A
- Decay rate relative to wild type, Factor VIIIa (1.5 nM, factor IXa absent) [2]: 0.25 relative to wild type
- Decay rate, Factor VIIIa (1.5 nM factor VIIIa, factor IXa absent) [2]: 0.0352 min⁻¹

B4: factor VIIIa A2 subunit, Asp519Val (other)
chain: B1 chain with D147V, V293E
- Factor VIIIa Decay relative to the WT value, Factor IXa absent [1]: 0.77 relative to WT
- Factor VIIIa Decay relative to the WT value, Factor IXa present [1]: 0.44 relative to WT
- Factor VIIIa Decay, Factor IXa absent [1]: 0.0642 min⁻¹
- Factor VIIIa Decay, Factor IXa present [1]: 0.0068 min⁻¹
- Decay rate relative to wild type, Factor VIIIa (1.5 nM, factor IXa absent) [2]: 0.6 relative to wild type
- Decay rate, Factor VIIIa (1.5 nM factor VIIIa, factor IXa absent) [2]: 0.0836 min⁻¹
- Decay rate relative to wild type, Factor VIIIa (1.5 nM, factor IXa absent) [3]: 0.12 relative to wild type
- Decay rate, Factor VIIIa (1.5 nM factor VIIIa, factor IXa absent) [3]: 0.0168 min⁻¹
- Decay rate relative to wild type, Factor VIIIa (1.5 nM, factor IXa absent) [4]: 0.19 relative to wild type
- Decay rate, Factor VIIIa (1.5 nM factor VIIIa, factor IXa absent) [4]: 0.0262 min⁻¹
- Decay rate relative to wild type, Factor VIIIa (1.5 nM, factor IXa absent) [5]: 0.35 relative to wild type
- Decay rate, Factor VIIIa (1.5 nM factor VIIIa, factor IXa absent) [5]: 0.0495 min⁻¹

B5: factor VIIIa A2 subunit, D519V and E665V (other)
chain: B1 chain with D147V
- Decay rate relative to wild type, Factor VIIIa (1.5 nM, factor IXa absent) [2]: 0.14 relative to wild type
- Decay rate, Factor VIIIa (1.5 nM factor VIIIa, factor IXa absent) [2]: 0.0198 min⁻¹
- Decay rate relative to wild type, Factor VIIIa (1.5 nM, factor IXa absent) [3]: 0.1 relative to wild type
- Decay rate, Factor VIIIa (1.5 nM factor VIIIa, factor IXa absent) [3]: 0.0142 min⁻¹
- Decay rate relative to wild type, Factor VIIIa (1.5 nM, factor IXa absent) [4]: 0.16 relative to wild type
- Decay rate, Factor VIIIa (1.5 nM factor VIIIa, factor IXa absent) [4]: 0.0227 min⁻¹

B6: factor VIIIa A2 subunit, Asp519Ala (other)
chain: B1 chain with D147A, V293E
- Factor VIIIa Decay relative to the WT value, Factor IXa absent [1]: 0.66 relative to WT
- Factor VIIIa Decay relative to the WT value, Factor IXa present [1]: 0.41 relative to WT
- Factor VIIIa Decay, Factor IXa absent [1]: 0.0556 min⁻¹
- Factor VIIIa Decay, Factor IXa present [1]: 0.0063 min⁻¹
- Decay rate relative to wild type, Factor VIIIa (1.5 nM, factor IXa absent) [2]: 0.64 relative to wild type
- Decay rate, Factor VIIIa (1.5 nM factor VIIIa, factor IXa absent) [2]: 0.0898 min⁻¹
- Decay rate relative to wild type, Factor VIIIa (1.5 nM, factor IXa absent) [3]: 0.19 relative to wild type
- Decay rate, Factor VIIIa (1.5 nM factor VIIIa, factor IXa absent) [3]: 0.0266 min⁻¹
- Decay rate relative to wild type, Factor VIIIa (1.5 nM, factor IXa absent) [4]: 0.23 relative to wild type
- Decay rate, Factor VIIIa (1.5 nM factor VIIIa, factor IXa absent) [4]: 0.0319 min⁻¹
- Decay rate relative to wild type, Factor VIIIa (1.5 nM, factor IXa absent) [5]: 0.53 relative to wild type
- Decay rate, Factor VIIIa (1.5 nM factor VIIIa, factor IXa absent) [5]: 0.0748 min⁻¹

B7: factor VIIIa A2 subunit, S695A (other)
chain: B1 chain with V293E, S323A
- Factor VIIIa decay rate relative to wild type, FIXa (+) [6]: 0.75 relative to wild type
- Factor VIIIa decay rate, FIXa (+) [6]: 0.0085 min⁻¹

B8: factor VIIIa A2 subunit, T522A (other)
chain: B1 chain with T150A, V293E
- Factor VIIIa decay rate relative to wild type, FIXa (+) [6]: 2.39 relative to wild type
- Factor VIIIa decay rate, FIXa (+) [6]: 0.027 min⁻¹

B9: factor VIIIa A2 subunit, D519A and E665V (other)
chain: B1 chain with D147A
- Decay rate relative to wild type, Factor VIIIa (1.5 nM, factor IXa absent) [2]: 0.16 relative to wild type
- Decay rate, Factor VIIIa (1.5 nM factor VIIIa, factor IXa absent) [2]: 0.0222 min⁻¹
- Decay rate relative to wild type, Factor VIIIa (1.5 nM, factor IXa absent) [3]: 0.17 relative to wild type
- Decay rate, Factor VIIIa (1.5 nM factor VIIIa, factor IXa absent) [3]: 0.0235 min⁻¹

B10: factor VIIIa A2 subunit, Y476F (other)
chain: B1 chain with Y104F, V293E
- Factor VIIIa decay rate relative to wild type, FIXa (+) [6]: 1.23 relative to wild type
- Factor VIIIa decay rate, FIXa (+) [6]: 0.0139 min⁻¹
